The target of this series is HER2 (His-tagged HER2 protein) (UniProt P04626 23-652). Briefly: Ni-NTA bead pull-down with RT-qPCR quantification; 1.5 mM Mg2+; 3 nM HER2, aptamer 0-100 nM; 30 mM Tris-HCl, 150 mM NaCl, 1.5 mM MgCl2, pH not stated, 30 min at room temperature (bead assay); cells 37 C, 30 min to 4 h. The conditions noted are these: tags: His.

AGCCGCGAGGGGAGGGAUAGGGUAGGGCGCGGCU (XNA, 2'-fluoro C and U (all pyrimidines)) [HER2 RNA aptamer (2'-F pyrimidine)] had a Kd of 16.5 ± 4.4 nM.

The values above are taken from article PMC7767363, “Development of HER2-Specific Aptamer-Drug Conjugate for Breast Cancer Therapy”.
